Several values for one entry are separate records, joined by “and”; a condition that tells them apart may be missing. Equal entries are not always repeated.
B1: Seq27 (LNCOV-27)/ADGN-106 nanoparticle complex (other)
peptide 1: EQAKTFLDKFNHEAEDLFPKWSAFLKEQSTLAQMYG
peptide 2: LWRALWRLWRSLWRLLWK
B2: Seq28 (LNCOV-20)/ADGN-106 nanoparticle complex (other)
peptide 1: KTFLDKFNHEAEDLFPGPKWSAFLKEQSTLAQMYG
peptide 2: LWRALWRLWRSLWRLLWK

Legend:
SARS-CoV-2 Spike [1] = molecular target: T1, SARS-CoV-2 Spike (SARS-CoV-2, UniProt P0DTC2 16-685); assay: inhibitor screening kit, ADGN-106 nanoparticles (Example 6, section A)
SARS-CoV-2 Spike [2] = molecular target: T1, SARS-CoV-2 Spike
SARS-CoV-2 Spike [3] = molecular target: T1, SARS-CoV-2 Spike; assay: inhibitor screening kit, ADGN-106 nanoparticles (Example 6, section B)

| Binder | fold more potent than SBP-1-ADGN-106/ADGN-106 complex (SARS-CoV-2 Spike [1]) [fold] | fold more potent than SBP-1 peptide/ADGN-106 complex (SARS-CoV-2 Spike [1]) [fold] | IC50 (SARS-CoV-2 Spike [2]) | fold more potent than SBP-1-ADGN-106/ADGN-106 complex (SARS-CoV-2 Spike [3]) [fold] | fold more potent than SBP-1 peptide/ADGN-106 complex (SARS-CoV-2 Spike [3]) [fold] |
| --- | --- | --- | --- | --- | --- |
| B1 | 6 | 40 | 1.8 nM and 1.1 nM | 4 | 35 |
| B2 | 6 | 40 | 2.7 nM and 2.1 nM | 4 | 35 |

From US20230304010A1 (AADIGEN, published 2023)
